{"source": "patent US20260137795A1", "about": "(IMMUNOME, published 2026)", "binders": {"B1": {"name": "UC961 (ATX-P-453) (antibody, V domains shown)", "VH": "QVQLQESGPGLVKPSQTLSLTCTVSGYAFTAYNIHWVRQAPGQGLEWMGSFDPYDGGSSYNQKFKDRLTISKDTSKNQVVLTMTNMDPVDTATYYCARGWYYFDYWGHGTLVTVSS", "VL": "DIVMTQTPLSLPVTPGEPASISCRASKSISKYLAWYQQKPGQAPRLLIYSGSTLQSGIPPRFSGSGYGTDFTLTINNIESEDAAYYFCQQHDESPYTFGEGTKVEIK"}, "B2": {"name": "ATX-P-875 (antibody, human IgG1, kappa, V domains shown)", "VH": "not shown", "VL": "DIQMTQSPSSLSASVGDRVTITCRASQSISSYLNWYQQKPGKAPKLLIYAASSLQSGVPSRFSGSGSGTDFTLTISSLQPEDFATYYCQQYDNLPITFGQGTRLEIKR", "notes": "human IgG1 heavy chain and kappa light chain"}, "B3": {"name": "ATX-P-885 (antibody, human IgG1, kappa, V domains shown)", "VH": "QVQLQQWGAGLLKPSETLSLTCAVYGGSFSGYYWSWIRQPPGKGLEWIGEINHSGSTNYNPSLKSRVTISVDTSKNQFSLKLSSVTAADTAVYYCAREGVYEDYWGQGTLVTVSS", "VL": "EIVLTQSPATLSLSPGERATLSCRASQSVSNYLAWYQQKPGQAPRLLIYDAYNRATGIPARFSGSGSGTDFTLTISSLEPEDFAVYYCQQRSNWPLTFGQGTRLEIKR", "notes": "as for B2"}, "B4": {"name": "4A5 (antibody, V domains shown)", "VH": "EVKLVESGGGLVKPGGSLKLSCAASGFTFSSYAMSWVRQIPEKRLEWVASISRGGTTYYPDSVKGRFTISRDNVRNILYLQMSSLRSEDTAMYYCGRYDYDGYYAMDYWGQGTSVTVSS", "VL": "DIKMTQSPSSMYASLGERVTITCKASPDINSYLSWFQQKPGKSPKTLIYRANRLVDGVPSRFSGGGSGQDYSLTINSLEYEDMGIYYCLQYDEFPYTFGGGTKLEMK"}}, "key": {"[1]": {"biological_target": "T1, human ROR-1 endogenously expressed on JeKo-1 and MDA-MB-468 cells (human, UniProt Q01973 30-937)", "assay": "cell-based or functional assay"}, "Hu/Cy/Rh ROR1 - His [2]": {"biological_target": "T2, Hu/Cy/Rh ROR1 - His (human/cynomolgus/rhesus, UniProt Q01973 30-403, limits assumed)", "T2 construct": "Purified His-tagged protein; also called HUMAN/CYNO/RHESUS ROR-1; not shown: His tag", "assay": "SPR, purified Hu/Cy/Rh ROR1-His"}, "[3]": {"biological_target": "T1, human ROR-1 endogenously expressed on …", "assay": "flow cytometry on MDA-MB-468 cells, titrated antibody detected with a labeled secondary antibody, % Top MFI (cellular binning with Dy650-UC961)"}, "[4]": {"biological_target": "T1, human ROR-1 endogenously expressed on …", "assay": "flow cytometry on MDA-MB-468 cells, titrated antibody detected with a labeled secondary antibody, % Top MFI (cellular binning with 4A5-PE)"}, "[5]": {"biological_target": "T1, human ROR-1 endogenously expressed on …", "assay": "competition on MDA-MB-468 cells by flow cytometry: ATX-P-875 titrated first, then a saturating dose of labeled 4A5 (4A5-PE) as the competed antibody"}, "[6]": {"biological_target": "T1, human ROR-1 endogenously expressed on …", "assay": "cell binding saturation assay, flow cytometry on ROR-1 positive cells; one value told for the group"}, "Mouse ROR1 - His": {"biological_target": "T3, Mouse ROR1 - His (mouse, UniProt Q9Z139 30-403, limits assumed)", "T3 construct": "Purified His-tagged protein; not shown: His tag", "T3 sequence (Q9Z139 30-403 limits assumed)": "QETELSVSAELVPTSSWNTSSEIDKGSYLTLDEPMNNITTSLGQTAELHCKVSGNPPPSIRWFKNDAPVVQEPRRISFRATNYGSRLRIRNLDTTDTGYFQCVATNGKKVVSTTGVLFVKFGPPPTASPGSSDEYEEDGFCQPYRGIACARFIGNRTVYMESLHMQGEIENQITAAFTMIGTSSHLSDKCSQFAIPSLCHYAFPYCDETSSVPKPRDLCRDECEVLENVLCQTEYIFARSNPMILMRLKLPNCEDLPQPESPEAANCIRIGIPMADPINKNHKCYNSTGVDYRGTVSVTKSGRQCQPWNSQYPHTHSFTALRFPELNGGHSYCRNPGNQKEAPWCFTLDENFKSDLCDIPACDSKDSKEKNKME", "assay": "SPR, purified Mouse ROR1-His"}, "[7]": {"biological_target": "T1, human ROR-1 endogenously expressed on …", "assay": "flow cytometry, titration on ROR-1 positive JeKo-1 cells, secondary antibody staining, Net MFI"}, "[8]": {"biological_target": "T1, human ROR-1 endogenously expressed on …", "assay": "competition on MDA-MB-468 cells by flow cytometry: ATX-P-885 titrated first, then a saturating dose of labeled UC961 (Dy650-UC961) as the competed antibody"}, "Hu/Cy/Rh ROR1 - His [9]": {"biological_target": "T2, Hu/Cy/Rh ROR1 - His", "assay": "SPR (Carterra), head 'Kinetics (KD)' of the binning table; the sheet prints no unit, the four other KD values of the same head equal the KD (M) of Table 1 on Hu/Cy/Rh ROR1-His"}}}
{"binder": "B1", "values": [{"measurement": "Cellular Internalization, JeKo-1 (%)", "setting": "[1]", "value": 75, "unit": "%"}, {"measurement": "Cellular Internalization, MDA-MB-468(%)", "setting": "[1]", "value": 80, "unit": "%"}, {"measurement": "Kd", "setting": "Hu/Cy/Rh ROR1 - His [2]", "value": 4.69, "unit": "nM"}, {"measurement": "koff", "setting": "Hu/Cy/Rh ROR1 - His [2]", "value": 0.00591, "unit": "s⁻¹"}, {"measurement": "kon", "setting": "Hu/Cy/Rh ROR1 - His [2]", "value": "1.26e+06", "unit": "M⁻¹ s⁻¹"}]}
{"binder": "B2", "values": [{"measurement": "Cellular Internalization, JeKo-1 (%)", "setting": "[1]", "value": 75, "unit": "%"}, {"measurement": "Cellular Internalization, MDA-MB-468(%)", "setting": "[1]", "value": 89, "unit": "%"}, {"measurement": "EC50 (read off the curve)", "setting": "[3]", "value": "~0.9", "unit": "nM"}, {"measurement": "EC50 (read off the curve)", "setting": "[4]", "value": "~0.6", "unit": "nM"}, {"measurement": "IC50 (read off the curve)", "setting": "[5]", "value": "~0.7", "unit": "nM"}, {"measurement": "saturating concentration", "setting": "[6]", "value": 74, "unit": "nM"}]}
{"binder": "B3", "values": [{"measurement": "Kd", "setting": "Mouse ROR1 - His", "value": 45.3, "unit": "nM"}, {"measurement": "koff", "setting": "Mouse ROR1 - His", "value": 0.00132, "unit": "s⁻¹"}, {"measurement": "kon", "setting": "Mouse ROR1 - His", "value": 29200, "unit": "M⁻¹ s⁻¹"}, {"measurement": "Cellular Internalization, JeKo-1 (%)", "setting": "[1]", "value": 75, "unit": "%"}, {"measurement": "Cellular Internalization, MDA-MB-468(%)", "setting": "[1]", "value": 89, "unit": "%"}, {"measurement": "EC50 (read off the curve)", "setting": "[3]", "value": "~3", "unit": "nM"}, {"measurement": "Kd", "setting": "Hu/Cy/Rh ROR1 - His [2]", "value": 10.9, "unit": "nM"}, {"measurement": "koff", "setting": "Hu/Cy/Rh ROR1 - His [2]", "value": 0.00295, "unit": "s⁻¹"}, {"measurement": "kon", "setting": "Hu/Cy/Rh ROR1 - His [2]", "value": 270000, "unit": "M⁻¹ s⁻¹"}, {"measurement": "EC50 (read off the curve)", "setting": "[4]", "value": "~2", "unit": "nM"}, {"measurement": "EC50 (read off the curve)", "setting": "[7]", "value": "~0.3", "unit": "nM"}, {"measurement": "saturating concentration", "setting": "[6]", "value": 74, "unit": "nM"}, {"measurement": "IC50 (read off the curve)", "setting": "[8]", "value": "~3", "unit": "nM"}]}
{"binder": "B4", "values": [{"measurement": "Kd", "setting": "Hu/Cy/Rh ROR1 - His [9]", "value": 2.81, "unit": "nM"}]}
